For this data set the following is noted: Pseudomonas aeruginosa (strain ATCC 15692 / DSM 22644 / CIP 104116 / JCM 14847 / LMG 12228 / 1C / PRS 101 / PAO1); pH 7; 25 °C; GdnHCl; Fluorescence; Tris-HCl 100 mM; reversible: Yes; whole UniProt chain shown.

“And” between values parts separate entries of the source, which are not always exact repeats. Equal entries are not always repeated.

B1: Azurin wild type, P00282 (protein)
chain: MLRKLAAVSLLSLLSAPLLAAECSVDIQGNDQMQFNTNAITVDKSCKQFTVNLSHPGNLPKNVMGHNWVLSTAADMQGVVTDGMASGLDKDYLKPDDSRVIAHTKLIGSGEKDSVTFDVSKLKEGEQYMFFCTFPGHSALMKGTLTLK
Regarding B1, the unfolding free energy was 5.98 kcal/mol and 12.9 kcal/mol.
